Experimental data reported in IntAct's records for PubMed 29039417.

B1: Isoform 2 of Bardet-Biedl syndrome 7 protein (Homo sapiens), Q8IWZ6-2 (parent)
chain: MDLILNRMDYLQVGVTSQKTMKLIPASRHRATQKVVIGDHDGVVMCFGMKKGEAAAVFKTLPGPKIARLELGGVINTPQEKIFIAAASEIRGFTKRGKQFLSFETNLTESIKAMHISGSDLFLSASYIYNHYCDCKDQHYYLSGDKINDVICLPVERLSRITPVLACQDRVLRVLQGSDVMYAVEVPGPPTVLALHNGNGGDSGEDLLFGTSDGKLALIQITTSKPVRKWEIQNEKKRGGILCIDSFDIVGDGVKDLLVGRDDGMVEVYSFDNANEPVLRFDQMLSESVTSIQGGCVGKDSYDEIVVSTYSGWVTGLTTEPIHKESGPGEELKINQEMQNKISSLRNELEHLQYKVLQERENYQQSSQSSKAKSAVPSFGINDKFTLNKDDASYSLILEVQTAIDNVLIQSDVPIDLLDVDKNSAVVSFSSCDSESNDNFLLATYRCQADTTRLELKIRSIEGQYGTLQAYVTPRIQPKTCQVRQYHIKPLSLHQRTHFIDHDRPMNTLTLTGQFSFAEVHSWVVFCLPEVPEKPPAGECVTFYFQNTFLDTQLESTYRKGEGVFKSDNISTISILKDVLSKEATKRKINLNISYEINEVSVKHTLKLIHPKLEYQLLLAKKVQLIDALKELQIHEGNTNFLIPEYHCILEEADHLQEEYKKQPAHLERLYG
partner: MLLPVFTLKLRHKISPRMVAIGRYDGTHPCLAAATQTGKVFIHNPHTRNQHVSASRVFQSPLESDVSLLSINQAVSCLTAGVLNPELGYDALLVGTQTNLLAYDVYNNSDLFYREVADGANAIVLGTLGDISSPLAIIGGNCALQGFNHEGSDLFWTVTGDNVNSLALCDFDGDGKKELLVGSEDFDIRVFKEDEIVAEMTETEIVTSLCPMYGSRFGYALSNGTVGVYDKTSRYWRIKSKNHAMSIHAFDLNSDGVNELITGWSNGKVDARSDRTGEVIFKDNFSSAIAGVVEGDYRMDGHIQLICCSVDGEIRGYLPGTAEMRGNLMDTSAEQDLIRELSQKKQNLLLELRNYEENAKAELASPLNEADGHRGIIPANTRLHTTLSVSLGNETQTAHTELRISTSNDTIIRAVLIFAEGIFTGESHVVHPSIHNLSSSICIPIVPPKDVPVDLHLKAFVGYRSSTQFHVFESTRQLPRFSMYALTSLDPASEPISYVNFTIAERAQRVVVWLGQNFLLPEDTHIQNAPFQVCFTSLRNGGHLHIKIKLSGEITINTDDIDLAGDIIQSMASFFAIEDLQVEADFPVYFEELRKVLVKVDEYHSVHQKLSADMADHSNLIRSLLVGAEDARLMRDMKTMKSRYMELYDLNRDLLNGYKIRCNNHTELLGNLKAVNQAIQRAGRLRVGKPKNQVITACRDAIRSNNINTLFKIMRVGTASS

Variants of: B1
Settings: with bbs2_human BBS2, Q9BXC9

Row | Variant | effect of a mutation on the interaction
1 | L418A | with no effect
2 | K422A | with no effect
3 | I461E | with no effect
4 | V541K | with no effect
5 | Q482K | with no effect
6 | L357A | with no effect
7 | D438E | with no effect
8 | A375E | with no effect
9 | F526K | with no effect
10 | T452A | with no effect
11 | Y354A | with no effect
12 | S343A | with no effect
13 | V564E | with no effect
14 | V400K | with no effect
15 | V400A | with no effect
16 | I597A | with no effect
17 | L396K | with no effect
18 | F545A | with no effect
19 | P414A | with no effect
20 | D450E | with no effect
21 | I570A | with no effect

Row | Variant | effect of a mutation on the interaction
22 | K621A | with no effect
23 | T572E | with no effect
24 | T572A | with no effect
25 | N592A | with no effect
26 | G561E | with no effect
27 | Q358A | with no effect
28 | T467E | with no effect
29 | N362A | with no effect
30 | I634K | with no effect
31 | G538E | with no effect
32 | C540A | with no effect
33 | F379E | with no effect
34 | L550K | with no effect
35 | P529E | with no effect
36 | P529A | with no effect
37 | T605E | with no effect
38 | L576A | with no effect
39 | R669K | with no effect
40 | N382K | with no effect
41 | D390K | with no effect
42 | T585A | with no effect

Row | Variant | effect of a mutation on the interaction
43 | T585K | with no effect
44 | D391E | with no effect
45 | D391K | with no effect
46 | L608E | with no effect
47 | D654K | with no effect
48 | I609E | with no effect
49 | L345E | with no effect
50 | Q624E | with no effect
51 | I381K | with no effect
52 | F549E | with no effect
53 | F549K | with no effect
54 | Y465K | with no effect
55 | E462K | with no effect
56 | E645K | with no effect
57 | K661A | with no effect
58 | Y595E | with no effect
59 | I589E | with no effect
60 | R346K | with no effect
61 | E399V | disrupting interaction strength
62 | E399K | with no effect
63 | F565K | with no effect

Row | Variant | effect of a mutation on the interaction
64 | Q485E | with no effect
65 | R453K | with no effect
66 | G463K | with no effect
67 | K622A | with no effect
68 | L619E | with no effect
69 | F543K | with no effect
70 | N437K | with no effect
71 | R587A | with no effect
72 | E562A | with no effect
73 | R559K | with no effect
74 | R559E | with no effect
75 | I488A | with no effect
76 | I488K | with no effect
77 | Q514K | with no effect
78 | T557E | with no effect
79 | T557A | with no effect
80 | Q464E | with no effect
81 | I458Q | disrupting interaction strength

Now from value to variant:

Row | effect of a mutation on the interaction | Variant
82 | with no effect | N388K
83 | with no effect | Q365E
84 | with no effect | Y394K
85 | with no effect | L332K
86 | with no effect | H610K
87 | with no effect | L491K
88 | with no effect | S395A
89 | with no effect | S395K
90 | with no effect | Y660E
91 | with no effect | Y646A
92 | with no effect | D438K
93 | with no effect | G380E
94 | with no effect | G380K
95 | with no effect | F385A
96 | with no effect | N423A
97 | with no effect | F526A
98 | with no effect | L606A
99 | with no effect | Q469K
100 | with no effect | L468E
101 | with no effect | L468K
102 | with no effect | L468A
103 | with no effect | Y354E
104 | with no effect | S343E
105 | with no effect | V376K
106 | with no effect | V376E
107 | with no effect | S567K

Row | effect of a mutation on the interaction | Variant
108 | with no effect | I597E
109 | with no effect | I597K
110 | with no effect | H494K
111 | with no effect | D450K
112 | with no effect | I500A
113 | with no effect | S431A
114 | with no effect | T572K
115 | with no effect | N590E
116 | disrupting interaction strength | G466D
117 | with no effect | V420K
118 | with no effect | V420A
119 | with no effect | V420E
120 | with no effect | L629K
121 | with no effect | L650A
122 | with no effect | N362K
123 | with no effect | L617K
124 | with no effect | S367E
125 | with no effect | Q410E
126 | with no effect | C540K
127 | with no effect | P529K
128 | with no effect | S370A
129 | with no effect | T451E
130 | with no effect | P535E
131 | with no effect | P535A
132 | with no effect | L554E
133 | with no effect | R669E

Row | effect of a mutation on the interaction | Variant
134 | with no effect | T402A
135 | disrupting interaction strength | F499S
136 | with no effect | W523E
137 | with no effect | I573E
138 | with no effect | I573K
139 | with no effect | K662E
140 | with no effect | F440A
141 | with no effect | P536K
142 | with no effect | Q657A
143 | with no effect | L509A
144 | with no effect | L509K
145 | with no effect | S393K
146 | with no effect | L345K
147 | disrupting interaction strength | Q624Y
148 | disrupting interaction strength | Q624S
149 | with no effect | E435A
150 | with no effect | H498E
151 | with no effect | H498A
152 | with no effect | F517E
153 | with no effect | I643K
154 | with no effect | I643E
155 | with no effect | M506E
156 | with no effect | V413A
157 | with no effect | N335E
158 | with no effect | N335A
159 | with no effect | L613A

Row | effect of a mutation on the interaction | Variant
160 | with no effect | L618K
161 | with no effect | T548K
162 | with no effect | R504E
163 | with no effect | T386E
164 | with no effect | P664K
165 | with no effect | K457E
166 | with no effect | F429K
167 | with no effect | K534E
168 | with no effect | L528E
169 | with no effect | G463E
170 | with no effect | M338K
171 | with no effect | M338E
172 | with no effect | Q633A
173 | with no effect | D627A
174 | with no effect | H351K
175 | with no effect | T639A
176 | with no effect | F543A
177 | with no effect | N598A
178 | with no effect | V602E
179 | with no effect | C527K
180 | with no effect | I397E
181 | with no effect | H666K
182 | with no effect | E530A
183 | disrupting interaction strength | I458K
184 | with no effect | D578E
